Experimental data from patent US20060240570A1.
Positions of bridges follow the written chain, without caps; N, C: chain ends. No end group written: not given here.

Columns and labels:
[1] = biological target: unrelated control antibody; assay: phage ELISA, 10^8 phagemid, wells coated with control mAb
[2] = biological target: unrelated control antibody; assay: phage ELISA, 10^9 phagemid, wells coated with control mAb
[3] = biological target: unrelated control antibody; assay: phage ELISA, 10^10 phagemid, wells coated with control mAb

B1: phagemid CS1-29p, displayed peptide … (peptide)
peptide: CSGLYPWDYFMCS
modifications: disulfide 1-12 (inferred); also: displayed on phagemid
[1]
  ELISA (absorbance units) (absorbance units): 0.125
[2]
  ELISA (absorbance units) (absorbance units): 0.147
[3]
  ELISA (absorbance units) (absorbance units): 0.148

B2: phagemid CS1-2p, displayed peptide … (peptide)
peptide: CSLFYLWDQDRCS
modifications: disulfide 1-12 (inferred); also: displayed on phagemid
[1]
  ELISA (absorbance units) (absorbance units): 0.188
[2]
  ELISA (absorbance units) (absorbance units): 0.199
[3]
  ELISA (absorbance units) (absorbance units): 0.228

B3: phagemid CS1-11p, displayed peptide … (peptide)
peptide: CSFRYQWDMFRCS
modifications: disulfide 1-12 (inferred); also: displayed on phagemid
[1]
  ELISA (absorbance units) (absorbance units): 0.252
[2]
  ELISA (absorbance units) (absorbance units): 0.258
[3]
  ELISA (absorbance units) (absorbance units): 0.242

B4: phagemid CS1-9p, displayed peptide … (peptide)
peptide: CSGLYPWDMFRCS
modifications: disulfide 1-12 (inferred); also: displayed on phagemid
[1]
  ELISA (absorbance units) (absorbance units): 0.209
[2]
  ELISA (absorbance units) (absorbance units): 0.204
[3]
  ELISA (absorbance units) (absorbance units): 0.213

B5: phagemid CS1-31p, displayed peptide … (peptide)
peptide: CSFFYSLCYCWCS
modifications: disulfide (positions not given here); also: disulfide pairing among 4 Cys not given here, displayed on phagemid
[1]
  ELISA (absorbance units) (absorbance units): 0.116
[2]
  ELISA (absorbance units) (absorbance units): 0.118
[3]
  ELISA (absorbance units) (absorbance units): 0.125

B6: phagemid CS1-6p, displayed peptide … (peptide)
peptide: CSFRYLWDQDRCS
modifications: disulfide 1-12 (inferred); also: displayed on phagemid
[1]
  ELISA (absorbance units) (absorbance units): 0.173
[2]
  ELISA (absorbance units) (absorbance units): 0.172
[3]
  ELISA (absorbance units) (absorbance units): 0.203
